The subject of the data set is O=C(Cc1cccs1)N[C@@H]1C(=O)N2C(C(=O)O)=C(/C=C/c3ccc([N+](=O)[O-])cc3[N+](=O)[O-])CS[C@H]12. The data set can be described thus: steady-state hydrolysis kinetics with purified PenA. Format: biochemical, Burkholderia multivorans.

This note sets out measurements from paper PMC5560099.

As usually defined, the Km is the concentration of substrate that gives half-maximal velocity. In general, kcat/Km refers to the turnover number divided by the Michaelis constant.

Consider “PenA β-lactamase (Burkholderia multivorans ATCC 17616)”, for which the Michaelis-Menten constant (Km) turned out to be 147 ± 15 µM and the kcat/Km was 3.2e+06 ± 300000 M⁻¹ s⁻¹.
